The values that follow come from US20040175377A1, “Agent and method for reducing intraocular pressure” (priority 2000, published 2004).

Data set [1] relates to differentiated human TM (HTM) cell cultures. The data set can be described thus: Differentiated HTM cell cultures incubated with recombinant protein; extracellular matrix and cell contacts by immunofluorescence, phase microscopy and western blot. The settings on record: for disruption of cell contacts or matrix assembly: pentapeptides administered separately to HTM cell cultures. It counts as cell-based. The procedure: (§1) Differentiated human TM (HTM) cell cultures were incubated with a recombinant Hep II domain protein for eighteen hours. The effect on the extracellular matrix and cell contacts were observed using immunofluorescence microcopy, phase microscopy and western blot. Differentiated HTM cultures look like endothelial cells and form cell to cell junctions and closely resemble TM cells in vivo. Differentiated HTM cells also secrete matrix proteins such as fibronectin, type IV collagen and laminin. Non-differentiated cells lack these qualities and are less suitable for in vitro analysis methods. Cells were grown as described in Polansky J R, Weinreb R, Alvarado J A. Studies on human trabecular cells propagated in vitro. Vis Res 1981;21 :155-60 and Polansky J R, Weinreb R N, Baxter J D, Alvarado J. Human trabecular cells. I. Establishment in tissue culture and growth characteristics. Invest Ophthalmol Vis Sci 1979;18:1043-9, both incorporated by reference in their entirety.
After incubation, the turnover of fibronectin fibrils, a good indicator of matrix formation, was studied. […] The Hep II protein was a GST protein. The GST portion was cleaved with thrombin as described by Bultmann, H., et al., Fibronectin Fibrilogenesis Involves the Heparin II Binding Domains of Fibronectin, J. Biol. Chem. 273:2601-2609 (1998).
To identify the active region of the Hep II domain, smaller fragments including either the Type III repeat 12, the Type III repeat 14, or the Type III repeats 13 and 14 were produced as recombinant GST proteins, as above.
In general terms: A western blot detects proteins with antibodies after separation by electrophoresis.

The subject of data set [2] is human trabecular meshwork organ culture (eye). The data set can be described thus: Human eye organ culture perfusion, paired control and test eyes, IOP. The procedure: While this effect on matrix formation was relatively slow, the Hep II domain acts quickly in intact eyes to increase outflow facility. In human eye culture studies using pairs of control and test eyes, as described by Johnson, D H and Tschumper, R C. (1987) Human Trabecular Meshwork Organ Culture. IVOS 28:945-953, incorporated by reference, a baseline IOP was determined, pumps were turned off and the Hep II domain was injected at 13.8 μM into the anterior chamber of one eye. The pumps were kept off for four hours to allow the Hep II domain to mix with the contents of the anterior chamber. After four hours, the treated eyes were perfused with buffer containing the Hep II domain at 13.8 μM for twenty-four hours. Untreated eyes were perfused with buffer. […] After twenty-four hours, the pumps were turned off and the perfusate in both eyes was replaced with fresh buffer without the protein.

Data set [3] has as its system Schlemm's canal endothelium and extracellular matrix of the eye. In words: Light and electron microscopy of fixed treated and untreated organ-cultured eyes. The note with it: fixed eyes after perfusion. On the set-up: species or system human. From the text:
The treated and untreated eyes were then fixed and prepared for both light and electron microscopy. […] Part of the inner side of the cannel was disrupted and small discontinuous cellular processes replaced a continuous cell layer found in a normal eye. […] These changes can account for the increased outflow in the presence of the Hep II domain since they would have created additional spaces or openings for fluid flow.

The subject of a further data set is vinculin. The data set can be described thus: Tyrosine phosphorylation of vinculin after treatment. It counts as cell-based, human. The settings on record: after treatment of the eye with the Hep II domain. The procedure:
as §1
Further, a number of morphological changes also indicate disrupted cell contacts. […] Vinculin is a major structural protein that maintain cell-cell and cell-adhesion contracts. Changes in its phosphorylation state indicate that the treatment has biochemically affected the molecules that maintain cell-cell and cell-adhesion contracts. […]

Consider IDAPS (listed as Homo sapiens), for which the “disruption of cell contacts or matrix assembly” value in data set [1] was “neither disrupted cell contacts or matrix assembly”.
On the same count and under the same terms, the value for PRARI (listed as Homo sapiens) was “neither disrupted cell contacts or matrix assembly”.

B1: Hep II domain: recombinant 33 kilodalton Hep II domain of fibronectin containing type III repeats 12, 13 and 14 (SEQ ID NO:2) (protein, listed as Homo sapiens)
chain: IPAPTDLKFTQVTPTSLSAQWTPPNVQLTGYRVRVTPKEKTGPMKEINLAPDSSSVVVSGLMVATKYEVSVYALKDTLTSRPAQGVVTTLENVSPPRRARVTDATETTITISWRTKTETITGFQVDAVPANGQTPIQRTIKPDVRSYTITGLQPGTDYKIYLYTLNDNARSSPVVIDASTAIDAPSNLRFLATTPNSLLVSWQPPRARITGYIIKYEKPGSPPREVVPRPRPGVTEATITGLEPGTEYTIYVIALKNNQKSEPLIGRKKT
For the molecule B1, in data set [2] (13.8 μM injected into the anterior chamber, pumps off four hours, then perfusion at 13.8 μM for twenty-four hours, versus baseline), the “decrease in IOP” value came out at 32%. For the same molecule, the “pressure in the treated eye after replacement of perfusate with buffer without the protein” value in data set [2] (after twenty-four hours perfusion, absence of the Hep II domain) was “returned to the baseline level”. Besides, in data set [2] (plurality of assays, number of treated eyes), the “treated organ-cultured eyes with lower IOP after treatment” value is reported as “six of seven”. In data set [3], the “electron microscopy, endothelium in Schlemm's canal” value is listed as “altered”; the “electron microscopy, extracellular matrix in the juxtacanalicular region” value is “altered and amorphous material appeared in the cribiform meshwork”; the “light microscopy, treated versus untreated eyes” value is listed as “not distinguishable”. In addition, the “tyrosine phosphorylation of vinculin” value with vinculin is “significant increase”. The “level of fibronectin matrixes (turnover of fibronectin fibrils)” value in data set [1] (HTM cell cultures, 4.6 μM, eighteen hours incubation) was “dramatic decrease”. In addition, in data set [1] (compared to untreated cultures), the “morphological changes indicating disrupted cell contacts” value is listed as “increase in the number of retraction fibers”. In data set [1] (higher peptide concentrations), the “morphological changes at higher peptide concentrations” value was “retraction and rounding up of many cells”.
